In paper PMC10279920, “Single-molecule visualization of Pif1 helicase translocation on single-stranded DNA” (The Journal of Biological Chemistry, 2023):
Residue numbers refer to the chain shown, from its start.

Experiments:
Test in all cases: EMSA; no ATP, 5 mM Mg2+; 35 mM Tris-HCl pH 7.5, 1 mM DTT, 5 mM MgCl2, 60 mM KCl, 0.1 mg/ml BSA, no ATP, 30 min at 30 C; 5 nM ssDNA
Conditions in all cases: protein: recombinant; tags: N-terminal superfolder GFP; Ni-NTA purified; label: 5' Alexa647
GFP-Pif1 K312A = biological target: T1, GFP-Pif1 K312A (Saccharomyces cerevisiae, UniProt P07271 40-859, K312A)
T1 sequence: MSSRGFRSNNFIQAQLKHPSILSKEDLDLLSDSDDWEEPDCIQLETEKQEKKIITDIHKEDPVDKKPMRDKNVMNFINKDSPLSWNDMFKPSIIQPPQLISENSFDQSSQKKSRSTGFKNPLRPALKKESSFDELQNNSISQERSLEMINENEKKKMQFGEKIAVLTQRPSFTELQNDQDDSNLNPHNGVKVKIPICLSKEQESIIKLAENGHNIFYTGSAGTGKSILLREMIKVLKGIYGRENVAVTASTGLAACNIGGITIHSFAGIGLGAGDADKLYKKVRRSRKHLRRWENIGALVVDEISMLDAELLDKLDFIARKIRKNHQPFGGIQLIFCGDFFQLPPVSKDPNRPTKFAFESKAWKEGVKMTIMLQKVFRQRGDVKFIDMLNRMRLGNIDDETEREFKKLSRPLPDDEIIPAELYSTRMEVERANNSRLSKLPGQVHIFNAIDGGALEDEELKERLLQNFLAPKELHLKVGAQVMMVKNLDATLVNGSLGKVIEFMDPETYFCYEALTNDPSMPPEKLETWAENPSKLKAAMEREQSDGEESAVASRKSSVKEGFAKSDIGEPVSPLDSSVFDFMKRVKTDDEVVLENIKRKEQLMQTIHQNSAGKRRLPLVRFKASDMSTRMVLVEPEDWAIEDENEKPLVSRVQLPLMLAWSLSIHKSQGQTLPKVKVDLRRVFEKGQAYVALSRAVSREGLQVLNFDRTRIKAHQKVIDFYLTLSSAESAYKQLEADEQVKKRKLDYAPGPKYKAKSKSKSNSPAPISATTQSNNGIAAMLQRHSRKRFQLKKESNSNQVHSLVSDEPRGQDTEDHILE

GFP-Pif1 K264A = biological target: T2, GFP-Pif1 K264A (Saccharomyces cerevisiae, UniProt P07271 40-859, K264A)
T2 sequence: T1 sequence with K225A, A273K

GFP-Pif1 F723A = biological target: T3, GFP-Pif1 F723A (Saccharomyces cerevisiae, UniProt P07271 40-859, F723A)
T3 sequence: T1 sequence with A273K, F684A

B1: 40-nt ssDNA (ssDNA)
DNA: GCTAGCAGTAGCCAGCATCGAACGTACGATCGGTAACGTA
Binder B1 has a Kd (GFP-Pif1 K312A) of 40 nM, a Kd (GFP-Pif1 K264A) of 12.1 nM and a Kd (GFP-Pif1 F723A) of 55.6 ± 18.5 nM.
